Consider 41 sequences from the nanobody polyreactivity screen of Harvey et al. (2022).

This data set can be described thus: yeast display, Sf9 membrane polyspecificity reagent, FACS + sequencing; frameworks hold sequencing errors. An outline of the steps: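 Polyreactivity labels are assigned by the sorting gate from which each nanobody was recovered. The gates were low and high (top ~1%), set on anti-HA fluorescence for expression and streptavidin fluorescence for reagent binding. Before sorting, galactose-induced (36–48 hours) yeast display cells were stained for 1 hour at 4 °C with 10% biotinylated, detergent-solubilized Sf9 membrane reagent.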
Turning to “QVQLVESGGGLVQAGGSLRLSCAASGSTFGHNVMGWYRQSPGKERELVAAISTSGGRTYYADSVKGRFTISRDNAKNTVYLQMNSLKPEDTAVYYCAARVYSTSVVAYYYWGQGTQVTVSS”, the “polyreactivity (PSR sort gate)” value was “high polyreactivity”.

Consider “QVQLVESGGGLVQAGGSLRLSCAASGSTFGINAMGGYRPAPGKERELVAAITASGGRTYYADSVKGRFTISRDNAKNTVYLQMNSLKPEDTAVYYCAAGFYPYYYWGQGTQVTVSS”, for which the “polyreactivity (PSR sort gate)” value is given as “low polyreactivity”.

Take “QVQLVESGGGLVQAGGSLRLSCAASGSTFGINAMGWYRQAPGKERELVASITRRGGSTYYADSVKGRFTISRDNAKNTVYLQMNSLKTEDTAVYYFNKTYRYGTPLYDYWGQGTQVTVSS”: the “polyreactivity (PSR sort gate)” value is recorded as “high polyreactivity”.

Consider “QVQLVESGGGLVQAGGSLRLSCAASGSTFGINAMGWYRQSPGKERELVAAISSRGGRTYYADSVKGRFTISRDNAKNTVYLQMNSLKPEDTAVYYCNAVYGRVKGRGVGFKPQYDSWGQGTQVTVSS”, for which the “polyreactivity (PSR sort gate)” value was “high polyreactivity”.

On to “QVQLVESGGGLVQAGGSLRLSCAASGSTFGIYDMGWYRQAPGKERELVAAITSGGDTNYADSVKGRFTISRDNAKNTVYFQKNSLKPEDTAVYYCNARDGGQGNYSARYDYWGQGTQVTVSS”, for which the “polyreactivity (PSR sort gate)” value is listed as “low polyreactivity”.

For “QVQLVESGGGLVQAGGSLRLSCAASGSTFGKNAMGWYRQAPGKERELVAAISTSGTRTFFADSVKGRFTISRDNAKNTVYLQMNSLKPEDTAFYYWNAGRSSRAYYYWGQGTQVTVSS”, the “polyreactivity (PSR sort gate)” value is listed as “high polyreactivity”.

Regarding “QVQLVESGGGLVQAGGSLRLSCAASGSTFGKNAMGWYRQAPGKERELVAAITRGSGSTYYADSVKGRFTISRDNAKNTVYLQMNSLKPEDTAVYYCAARRYRLSTPEFNYWGQGTQVTVSS”, the “polyreactivity (PSR sort gate)” value is reported as “high polyreactivity”.

In the case of “QVQLVESGGGLVQAGGSLRLSCAASGSTFGKYAMGWYRQAPGKEREFVAGISWSADSTYYADSVKGRFTISRDNAKNTVYLQMNSLKPEDTAFYYCATDGSSDEFRPEYDYWGQGTQVTVSS”, the “polyreactivity (PSR sort gate)” value is given as “low polyreactivity”.

“QVQLVESGGGLVQAGGSLRLSCAASGSTFGKYVMGWYRQAPGKERELVAAISRSGGSTYYADYVKGRFTISRDNAMNTVYLQMNSLKPEDTAVYYCNAVVYFVGDFDYWGQGTQVSVSS”: the “polyreactivity (PSR sort gate)” value is “high polyreactivity”.

For the sequence “QVQLVESGGGLVQAGGSLRLSCAASGSTFGLYAMGWYRQAPGKERELVAAISGGSGRTYYADSVKGRFTISRDNAKNTVYLQMNSLKPEDTAVYYCAAVPVYRHEYDYWGQGTQVTVSS”, the “polyreactivity (PSR sort gate)” value was “low polyreactivity”.

Regarding “QVQLVESGGGLVQAGGSLRLSCAASGSTFGLYAMGWYRQAPGKERELVAAISSRGSRTYYADSVKGRFTISRDNAKNTVYLQMNSLKPEDTAVYYCNALYASSVRHKVTYDYWGQGTQVTVSS”, the “polyreactivity (PSR sort gate)” value is on record as “high polyreactivity”.

With “QVQLVESGGGLVQAGGSLRLSCAASGSTFGLYAMGWYRQAPGKERELVADITWSGGSTYYADSVKGRFTISRDNAKNTVYLQMNSMKPEDTAVYYCAARYAWVYYDFDYCGQGTQVTVSS”, the “polyreactivity (PSR sort gate)” value is “low polyreactivity”.

Regarding “QVQLVESGGGLVQAGGSLRLSCAASGSTFGLYAMGWYRQAPVKEREFVAAISWRTGSTYYADSVKGRFTISRDTAKNTVYLQMNSLKPEDTAVYYCNAPYFYSRYSPDDYWGQGTQVTVSS”, the “polyreactivity (PSR sort gate)” value is recorded as “high polyreactivity”.

On to “QVQLVESGGGLVQAGGSLRLSCAASGSTFGMNAMGWYRQAPGKERELVAAIDSSGGTTYYADSVKGRFTISRDHAKNTVYLQMNSRKPEDTAVYYCAADDNYYTFGYWGQGSQVTVSS”, for which the “polyreactivity (PSR sort gate)” value is reported as “high polyreactivity”.

As to “QVQLVESGGGLVQAGGSLRLSCAASGSTFGNAMGWYSQAPGKERELVAAISGSGSDTYYADSVKGRFTISRDNAKNPVYLQMNSLKPEDTAVYSWATETHRLDKGTDYGYDYWGQGTQVTVSS”, the “polyreactivity (PSR sort gate)” value is given as “low polyreactivity”.

As for “QVQLVESGGGLVQAGGSLRLSCAASGSTFGPNAMGWYRKAPGKERELVAALSKRGGRTDYADSVKGRFTISRDNAKNTVYLQMNSLKPEDTAVYYCNARDGSYYQGDYWGQGNQVTVSS”, the “polyreactivity (PSR sort gate)” value is on record as “high polyreactivity”.

On to “QVQLVESGGGLVQAGGSLRLSCAASGSTFGPNAMGWYRQAPGKERELVAAIRSNGGRTYYADSVKGRFTISRDNAKNTVYLQMNSLKPEDTAVYYCAAPHYPYDTPYGYWGQGTQVTVSS”, for which the “polyreactivity (PSR sort gate)” value is given as “low polyreactivity”.

Regarding “QVQLVESGGGLVQAGGSLRLSCAASGSTFGPNAMGWYRQAPGKERELVAAIRSQGGRTYYAYSVKGRFTISRDNAKNSVYLQMNSLIPEDTAVYYCGDPHYPYDTPYGYWGQGTQVTVSS”, the “polyreactivity (PSR sort gate)” value is reported as “low polyreactivity”.

Take “QVQLVESGGGLVQAGGSLRLSCAASGSTFGPNTMGWYRQAPRKERELVAAITSTGSTYYADSVKGRFTISRDNAKNTVYLQMNSLKPEDTAVYYCAARRYYGVYYAFYYWGQGTQVTVSS”: the “polyreactivity (PSR sort gate)” value is “high polyreactivity”.

As for “QVQLVESGGGLVQAGGSLRLSCAASGSTFGPYAMGWYRQAPGKERELVAAITLSGGSTYYADSVKGRFTISRDYAKNTVYLQLNRLKPEYTAVYYCAAEYDRVDEDDYWGQGTQVTVSS”, the “polyreactivity (PSR sort gate)” value is “high polyreactivity”.

Regarding “QVQLVESGGGLVQAGGSLRLSCAASGSTFGPYAMGWYRQAPGKEREMVAAISKTGGRTYYADSVKGRFTISRDNAKNTVYLQMHSLKPEDTAVYYCAADVGTAQSTYGYWGQGTQVTVSS”, the “polyreactivity (PSR sort gate)” value was “high polyreactivity”.

In the case of “QVQLVESGGGLVQAGGSLRLSCAASGSTFGPYAMGWYRQAPGKEVELVAAITASVGSTYYAESVKGRFTISRDNAKNTVYLQMNSLKPEDTAVYYCNADLSYFFGPYWGLYGLDYWGQGTQVTVSS”, the “polyreactivity (PSR sort gate)” value is on record as “low polyreactivity”.

For “QVQLVESGGGLVQAGGSLRLSCAASGSTFGPYTMGWYRQAPGKERELVAAISYSGASTYYADSVKGRFTISRDNAMNTVYLQMNSLKPEDTAVYYCNTVYRYTRARYPYDYWGQGTQVTVSS”, the “polyreactivity (PSR sort gate)” value was “high polyreactivity”.

For the sequence “QVQLVESGGGLVQAGGSLRLSCAASGSTFGPYVMGWYRQAPGKERELVAAISQSGGSTYYADSVKGRFTISRDNAKNTVYLQMNSLKPEDTAVYYCAAQTPYGMYYWGQGTQVTVSS”, the “polyreactivity (PSR sort gate)” value is on record as “low polyreactivity”.

For “QVQLVESGGGLVQAGGSLRLSCAASGSTFGQYALGWYRQAPGKERELVATISSGSTYYADSVKGRFTISRDNAKNTVYLQMNSLKPEDTAVYYCAARRIHTTSSRGYYWGQGSQVTVSS”, the “polyreactivity (PSR sort gate)” value is “high polyreactivity”.

“QVQLVESGGGLVQAGGSLRLSCAASGSTFGQYAMGWYRQAPGKERELVAAISRNGGRTYYADSVKGRFTISRDNAKNTVYLQMNSLKPEDTAVYYCAAGGFHYVYYRGMYYWGQGTQVTVSS”: the “polyreactivity (PSR sort gate)” value is “high polyreactivity”.

Take “QVQLVESGGGLVQAGGSLRLSCAASGSTFGRNAMGWYRQAPGKERELVAAISTSGSRTYYADSVKGRFTISRDNAKNTVYLQMNSLKPEDTAVYYCNAYGVSRGSYGTRGYWGQGTQVTVSS”: the “polyreactivity (PSR sort gate)” value was “high polyreactivity”.

For the sequence “QVQLVESGGGLVQAGGSLRLSCAASGSTFGRNAMGWYRQSPGKERELVAAISSRGGGTYYADSVKGRFTISRDNAKNSVYLQMNSLKPEDTAVYYCAADYVYGYYPKYTYKPSGYWGQGTQVTVTS”, the “polyreactivity (PSR sort gate)” value is reported as “high polyreactivity”.

“QVQLVESGGGLVQAGGSLRLSCAASGSTFGRYAMGWYRQAPGKERELVAAISRGGSTYYADSVKGRFTISRDNAKNTVYLQMNSLKPEDTAVYYCNKGDSKEYDVYYWGQGTQVTVSS”: the “polyreactivity (PSR sort gate)” value is “low polyreactivity”.

Consider “QVQLVESGGGLVQAGGSLRLSCAASGSTFGRYAMGWYRQAPGKERELVAAISRGTTTNYADSVKGRFTFSRDIAKNTVYLQMNSLKPVDTAVYYCAAESPSVFDGYAQLYIILEDYWGQGTQVTVSS”, for which the “polyreactivity (PSR sort gate)” value was “low polyreactivity”.

Consider “QVQLVESGGGLVQAGGSLRLSCAASGSTFGRYAMGWYRQAPGKERELVAGITSSGRTNYADSVKGRFTISRDNAKNTVYLQMNSLKPEDTAVYYCAKRWLRYGYRYDYWGQGTQVTVSS”, for which the “polyreactivity (PSR sort gate)” value was “high polyreactivity”.

With “QVQLVESGGGLVQAGGSLRLSCAASGSTFGRYAMGWYRQARGKERELVAAISYGDGSTYYADSVKGRFTISRDYAKNTVYLQINSLIPEDTAVYYCATETETYSCWDPVWADDYDYWGQGTQVTVSS”, the “polyreactivity (PSR sort gate)” value is on record as “low polyreactivity”.

As for “QVQLVESGGGLVQAGGSLRLSCAASGSTFGRYAMVWYRQAPGKEREFVAGITGRGGSTYYADSVKGRFTISRDNAKNTVYLQMKSLKPEVNAVYYSAAGYRVGYRYDYWGQCTQVTVSS”, the “polyreactivity (PSR sort gate)” value is given as “high polyreactivity”.

“QVQLVESGGGLVQAGGSLRLSCAASGSTFGRYVMGWYRQAPGKERELVAAISKNAGSTYYADSVKGRFTISRDNAKNTVYLQMNSLKPEDTAVYYCAADWRTKGYDSLGQGTQVTVSS”: the “polyreactivity (PSR sort gate)” value is on record as “high polyreactivity”.

“QVQLVESGGGLVQAGGSLRLSCAASGSTFGRYVMGWYRQAPGKEWELVAAISGSGGSTYYADSVKGRFTISRDNAKNTVDLQMNSLKPEDTAVYYCAAGGPTYELYRRGYWGQGTQVTVSS”: the “polyreactivity (PSR sort gate)” value was “high polyreactivity”.

For “QVQLVESGGGLVQAGGSLRLSCAASGSTFGSYAMGWYRPAPGKERELVAAISYSGGSTYYADSVKGRFTISRDNAKNTVYLQMNSLKPEDTAVYYCATVRKYRAMVYWGQGTQVTVSS”, the “polyreactivity (PSR sort gate)” value is given as “high polyreactivity”.

As for “QVQLVESGGGLVQAGGSLRLSCAASGSTFGSYAMGWYRQAPGKERELVAAISRAGSTYADSVKGRFTISRDNAKNTVYLQMNSLKPEDTAVYYCAKRDNALYYGYDYWGQGTQVTVSS”, the “polyreactivity (PSR sort gate)” value is listed as “low polyreactivity”.

For the sequence “QVQLVESGGGLVQAGGSLRLSCAASGSTFGSYAMGWYRQAPGKERELVAAITASGGSTYYADSVKGRFTISRDNAKNTVYLQMNSLKPEDTAVYYCAADTTYIPLSIEYDYWGQGTQVTVSS”, the “polyreactivity (PSR sort gate)” value is “low polyreactivity”.

For the sequence “QVQLVESGGGLVQAGGSLRLSCAASGSTFGSYAMGWYRQAPGKERELVAAITQIGGSTYYADSVKGRFTISRDNAKNTVYLQMNSLKPEDTEVYYCAVTAGRGGYPQGGVTRGYWGQGTQVTVSS”, the “polyreactivity (PSR sort gate)” value is listed as “high polyreactivity”.

As for “QVQLVESGGGLVQAGGSLRLSCAASGSTFGSYVMGWYRQAPGKERELVAAISGSGGSTYYADSVKGRFTISRDNAKNTVYLQMTSLKPEDTAVYYCAAYVFFPWYGYWGQGTQVTVSS”, the “polyreactivity (PSR sort gate)” value is listed as “high polyreactivity”.

For the sequence “QVQLVESGGGLVQAGGSLRLSCAASGSTFGTNAMGWSRQAPGKERELVAAITYSGGSTYYADSVKGRFTISRDNAKNTVYVQLNSLKPEDTAVYYCAARGHSSKYLWSYEYYYWGQGTQVTVSS”, the “polyreactivity (PSR sort gate)” value was “low polyreactivity”.
